Data as given in patent publication US20150110774A1, “S100 PROTEIN INHIBITORS FOR TREATING LEUKEMIA” (UNIVERSITE LAVAL, priority 2004, published 2015).

Tests used:
advanced leukemia = conditions: clinical studies; cited from earlier work
[1] = system: bone marrow cells from AML and CML patients; experiment: AML/CML patient bone marrow cell proliferation (colony assay); assay type: cell-based, human; conditions: FIG. 4
Procedure: PBMC and BM (5×10^4 cells) were incubated at 37° C. in methylcellulose-based media containing 1% methylcellulose in Iscove MDM, 30% foetal bovine serum, 1% BSA, 10^−4 M 2-mercaptoethanol and 2 mM of L-glutamine supplemented (+CSF) or not (−CSF) by 50 ng/mL of rhSCF, 10 ng/mL of rhIL-3, and 10 ng/mL of rhGM-CSF to support optimal growth of CFU-Granulocyte Macrophage (CFU-GM) CFU-Granulocyte (CFU-G) and CFU-Macrophage (CFU-M). Different concentrations of S100A12, S100A8, and/or S100A9 were also added to the cells. After 15 days, colony-forming units were counted.
Bone marrow cells were obtained by aspirates from a CML patient. (A) The cells were cultured for 14 days in Iscove medium supplemented with 15% FCS and 2% methylcellulose, in presence of increasing concentrations of S100A12. (B) The cells were culture for 14 days in presence of 10 pg/ml of S100A8, S100A9, S100A8/A9, or S100A12 in a methylcellulose medium supplemented or not with 50 ng/ml of Stem cell factor, 10 ng/ml of GM-CSF, and 10 ng/ml of IL-3. The results are the number of colonies per 30 mm^2 petri dishes (FIG. 4). As observed in Example III, different S100 proteins have stimulatory activity on bone marrow cells.

leukocytes = experiment: Leukocyte accumulation in the murine air pouch model; assay type: in vivo, mice; conditions: air pouch exudate; remainder monocytes
Procedure: S100A8, S100A9, and S100A12 induce an inflammatory reaction when injected in the murine air pouch model. In this model, sterile air is injected subcutaneously under the dorsum of mice on days 0 and 3. On day 7, an enclosed environment is formed in which it is possible to inject pro-inflammatory products. Injection of S100A8, S100A9, S100A12, or S100A8/A9 in the air pouch leads to the accumulation within 3 hrs of up to 8×10^6 leukocytes (FIG. 1). Leukocytes recruited consists of neutrophils (80%) and monocytes. The total number of neutrophils circulating in the peripheral blood of a mouse is estimated at 2.5×10^6 cells. […] This is confirmed by i.v. injections of S100 proteins which leads to the release of neutrophils from the bone marrow to the peripheral blood (FIG. 2). […] More importantly, the concentrations at which they exerted these functions are similar to those found in the plasma of patients suffering, for example but not limited to, from AML and CML.
Air pouches were raised in 10 to 12 week-old CD-1 mice. One ml of murine S100A8 ([…], 5 nM) or phosphate buffered saline (PBS) were injected into the air pouches and the migrating leukocytes were harvested by washing with PBS-EDTA 5 mM at various times. Leukocytes in exudates were counted, centrifuged on microscope slides and stained with Wright-Giemsa. Data represent the mean±SEM of at least 7 mice (FIG. 1).

bone marrow cells = experiment: Bone marrow cell proliferation (colonies in methylcellulose, 14 days); assay type: cell-based, mice; conditions: mouse bone marrow cells, FIG. 3
Procedure: Bone marrow cells were collected by flushing PBS through incisions made in the femurs of mice, followed by disaggregation. After removing contaminating erythrocytes by hypoosmotic lysis, bone marrow cells were cultured in semi-solid state in Methocult methylcellulose-based media (Stemcell technologies) for 14 days in presence of increasing concentrations of S100A8. At the end of the incubation period, the colonies were numerated. Similar results were obtained with S100A9, S100A8/A9, and S100A12. Results are from one experiment representative of 2 others (FIG. 3). All monomers and heterodimers have shown a growth stimulatory activity on bone marrow cells.

Row | Molecule | activity in patients with advanced leukemia (advanced leukemia) | proliferation of bone marrow cells from AML and CML patients [1] | neutrophils among leukocytes recruited (leukocytes) [%] | proliferation of bone marrow cells (bone marrow cells)
1 | Nc1ccn([C@@H]2CO[C@H](CO)O2)c(=O)n1 [β-L-OddC, (−)-β-L-Dioxolane-Cytidine] | significant activity |  |  | 
2 | S100A8: recombinant S100 calcium-binding protein, Myeloid Related Protein (MRP) (protein, UniProt P05109 1-93, looked up) Protein S100-A8: MLTELEKALNSIIDVYHKYSLIKGNFHAVYRDDLKKLLETECPQYIRKKGADVWFKELDINTDGAVNFQEFLILVIKMGVAAHKKSHEESHKE |  | proliferation also occurs | 80 | increase of proliferation
3 | S100A8/A9: heterodimer of S100A8 and S100A9 (protein, UniProt P05109 1-93; P06702 1-114, looked up) Protein S100-A8: MLTELEKALNSIIDVYHKYSLIKGNFHAVYRDDLKKLLETECPQYIRKKGADVWFKELDINTDGAVNFQEFLILVIKMGVAAHKKSHEESHKE Protein S100-A9: MTCKMSQLERNIETIINTFHQYSVKLGHPDTLNQGEFKELVRKDLQNFLKKENKNEKVIEHIMEDLDTNADKQLSFEEFIMLMARLTWASHEKMHEGDEGPGHHHKPGLGEGTP |  |  | 80 | increase of proliferation
4 | S100A9: recombinant S100 calcium-binding protein, Myeloid Related Protein (MRP) (protein, UniProt P06702 1-114, looked up) Protein S100-A9: MTCKMSQLERNIETIINTFHQYSVKLGHPDTLNQGEFKELVRKDLQNFLKKENKNEKVIEHIMEDLDTNADKQLSFEEFIMLMARLTWASHEKMHEGDEGPGHHHKPGLGEGTP |  | proliferation also occurs | 80 | increase of proliferation
